Assay results taken from the supplement of paper PMC7125110.
± gives the standard error. Variants at the floor of the assay were thinned out.

B1: glmS ribozyme (parent)
chain: AUAAAAGCGCCAGAACUACAGAAAUGUAGUUGACGAGGAGGAGGUUUAUCGAAUUUUCGGCGGAUGCCUCCAAA

Variants of: B1
Assay: self-cleavage kobs at 2500 uM GlcN6P; higher = faster cleavage; RNA array
Conditions: with glucosamine-6-phosphate
Method in brief: (§1)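 kobs was derived by fitting per-tile medians to one- or two-exponential decays after normalising signals to baseline and to non-cleaving reference variants. Those signals came from barcoded ribozyme variants transcribed in situ by E. coli RNA polymerase on sequenced MiSeq chips, followed through a hybridised Cy3 probe at 37 °C and imaged over ~14 h. Glucosamine-6-phosphate (40 μM to 10 mM) in HEPES/KCl/Mg(OAc)2 buffer was flowed in. Weighted Michaelis–Menten fits across concentrations then gave kcat and KM.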

Variant | self-cleavage kobs at 2500 uM GlcN6P
AUAAAAGCGCCAGAACUACAGAAAUGUAGUUGACGAAGAGGAGGUUUAACGGAUUUUCGGCGGAUGCCUCCAAA [G37A U49A A52G] | < 1e-05 s⁻¹
AUAAAAGCGCCAGAACUACAGAAAUGUAGUUGACGAGAAGGAGGUUUAUAGAAUUUUCGGCGGCUGCCUCCAAA [G38A C50A A64C] | < 1e-05 s⁻¹
AUAAAAGCGCCAGAACUACAGAAAUGUAGUUGACGGGGAGGAGGUAUAUCGAAUUUUCGGCGGAUGCCUACAAA [A36G U46A C70A] | < 1e-05 s⁻¹
AUAAAAGCGCCAGAACUACAGAAAUGUAGUUGACGAGCAGUGGGUUUAUCGAAUUUUCGGCGGAUGCCUCCAAA [G38C G41U A42G] | < 1e-05 s⁻¹
AUAAAAGCGCCAGAACUACAGAAAUGUAGUUGACUAGGAGGAGGUUUAUCGAAUUAUCGGCGGAUGCCUCUAAA [G35U U56A C71U] | < 1e-05 s⁻¹
AUAAAAGCGCCAGAACUACAGAAAUGUAGUUGACGAGAAGGAGGUUUAUCGAAUUUUCGGCAGAUGGCUCCAAA [G38A G62A C67G] | < 1e-05 s⁻¹
AUAAAAGCGCCAGAACUACAGAAAUGUAGUUGACUGGGAGGAGGCUUAUCGAAUUUUCGGCGGAGGCCUCCAAA [G35U A36G U45C U65G] | < 1e-05 s⁻¹
AUAAAAGCGCCAGAACUACAGAAAUGUAGUUGACGCGGAGGAGGUUUGUCGAAUUUUCGGCGGAUGCCUGCAAA [A36C A48G C70G] | < 1e-05 s⁻¹
AUAAAAGCGCCAGAACUACAGAAAUGUAGUUGACGAAGAGGAGGUUUAUGGAACUUUCGGCGGAUGCCUCCAAA [G37A C50G U54C] | 0.000123 ± 4.8e-05 s⁻¹
AUAAAAGCGCCAGAACUACAGAAAUGUAGUUGACGUGGAGGAGGUUUAUCGAAUUUUCGGCGAAUGCCUCCAAA [A36U G63A] | < 1e-05 s⁻¹
AUAAAAGCGCCAGAACUACAGAAAUGUAGUUGACGUGGAGGAGGUUUAUCGAAUCUUCGGCGGAUGCCUGCAAA [A36U U55C C70G] | < 1e-05 s⁻¹
AUAAAAGCGCCAGAACUACAGAAAUGUAGUUGACCAGGAGGAGGUUUAGCGAAUUUUCGGCUGAUGCCUCGAAA [G35C U49G G62U C71G] | < 1e-05 s⁻¹
AUAAAAGCGCCAGAACUACAGAAAUGUAGUUGACGACGAGGAGGUUUAUCGAAUAUUCGGCGGGUGCCUCCAAA [G37C U55A A64G] | 4.29e-05 ± 1.2e-05 s⁻¹
AUAAAAGCGCCAGAACUACAGAAAUGUAGUUGACGAGCAGGAGGUUUAUCGAAUUUUCGCCGGAUUCCUCCAAA [G38C G60C G66U] | < 1e-05 s⁻¹
AUAAAAGCGCCAGAACUACAGAAAUGUAGUUGACGGGGAGGAGGUUUAGCGAAUGUUCGGCGGAUGCCUCCAAA [A36G U49G U55G] | < 1e-05 s⁻¹
AUAAAAGCGCCAGAACUACAGAAAUGUAGUUGACUAGGAGGAGGUUUACUGAAUUUUGGGUGGAUGCCUCCAAA [G35U U49C C50U C58G C61U] | < 1e-05 s⁻¹
AUAAAAGCGCCAGAACUACAGAAAUGUAGUUGACGAGCUGGAGGUUUAUCGAGUUUUCGGCGGACGCCUCCAAA [G38C A39U A53G U65C] | < 1e-05 s⁻¹
AUAAAAGCGCCAGAACUACAGAAAUGUAGUUGACUAGGAGGAGGUUUGUGGAAUUUUCGGCGGAUGCCUCCAAA [G35U A48G C50G] | 0.000328 ± 0.00011 s⁻¹

Variant | self-cleavage kobs at 2500 uM GlcN6P
AUAAAAGCGCCAGAACUACAGAAAUGUAGUUGACGAAGAGGAGGUUUAUCGAAUUUUCGGCCGUUGCCUCCAAA [G37A G62C A64U] | < 1e-05 s⁻¹
AUAAAAGCGCCAGAACUACAGAAAUGUAGUUGACGAGAAGGAGGCUUAUCGUAUUUUCGGCGGAUGCCUCCAAA [G38A U45C A52U] | < 1e-05 s⁻¹
AUAAAAGCGCCAGAACUACAGAAAUGUAGUUGACGACGAGGAGGAUUAUCGAAUUUUCGUCGGCUGCCUCCAAA [G37C U45A G60U A64C] | < 1e-05 s⁻¹
AUAAAAGCGCCAGAACUACAGAAAUGUAGUUGACGAACAGGAGGUUUAUCGAAUUGUCGGCGGAUGCCUGCAAA [G37A G38C U56G C70G] | 6.06e-05 ± 1.5e-05 s⁻¹
AUAAAAGCGCCAGAACUACAGAAAUGUAGUUGACGAAGAGGAGGUUUAGCGAAUUUUCGGCGGAUGCCUUCAAA [G37A U49G C70U] | 7.97e-05 ± 2e-05 s⁻¹
AUAAAAGCGCCAGAACUACAGAAAUGUAGUUGACGAGCAGGAGGUGUAUCGAAUUUUCGGCGGAUGCGUCCAAA [G38C U46G C68G] | < 1e-05 s⁻¹
AUAAAAGCGCCAGAACUACAGAAAUGUAGUUGACGACGAGGAGGUUCAUCGAAUUUUAGGCGGAUGCCUCCAAA [G37C U47C C58A] | < 1e-05 s⁻¹
AUAAAAGCGCCAGAACUACAGAAAUGUAGUUGACGAUUAGGAGGUUUACCGAAUUUUCAGCGGAUGCCUCCAAA [G37U G38U U49C G59A] | < 1e-05 s⁻¹
AUAAAAGCGCCAGAACUACAGAAAUGUAGUUGACGAGCAGUAGGUUUAUCGACUUUUCGGCGGAUGCGUCCAAA [G38C G41U A53C C68G] | < 1e-05 s⁻¹
AUAAAAGCGCCAGAACUACAGAAAUGUAGUUGACGCGGAGGACGUUUAUGGAAUUUUCGGCGGAUGCAUCCAAA [A36C G43C C50G C68A] | < 1e-05 s⁻¹
AUAAAAGCGCCAGAACUACAGAAAUGUAGUUGACGACGAGGCGGUUUCUCGAAUUUUCGGCGGUUGCCUCCAAA [G37C A42C A48C A64U] | < 1e-05 s⁻¹
AUAAAAGCGCCAGAACUACAGAAAUGUAGUUGACUAGGAGGAGGUUUAUCGAAUUUUCGGCGGAUUCCUUCAAA [G35U G66U C70U] | < 1e-05 s⁻¹
AUAAAAGCGCCAGAACUACAGAAAUGUAGUUGACGGGGAGAAGGUUUAUCGAAUUUUCGGCGGAUGUCUCCAAA [A36G G41A C67U] | < 1e-05 s⁻¹
AUAAAAGCGCCAGAACUACAGAAAUGUAGUUGACGUGGAGGUGGUUUAUCGAAUUUUCUGCGGAUGCCUCCAAA [A36U A42U G59U] | < 1e-05 s⁻¹
AUAAAAGCGCCAGAACUACAGAAAUGUAGUUGACGAGCAGGAGGUUCAACGAAUUUUCGGCGGAUGCCUCCAAA [G38C U47C U49A] | < 1e-05 s⁻¹
AUAAAAGCGCCAGAACUACAGAAAUGUAGUUGACGCGGUCGGGGUCUAUCGAAUUUUCGGCGGAUGCCGCCAAA [A36C A39U G40C A42G U46C U69G] | < 1e-05 s⁻¹
AUAAAAGCGCCAGAACUACAGAAAUGUAGUUGACGUGGAGGAGGUUUAUCGAAUUUUGGGCGGAUGCCUUCAAA [A36U C58G C70U] | 6.88e-05 ± 2.4e-05 s⁻¹

Variants of: B1
Assay: self-cleavage kobs at 10000 uM GlcN6P; higher = faster cleavage; RNA array
Conditions: with glucosamine-6-phosphate
Method in brief: as §1

Variant | self-cleavage kobs at 10000 uM GlcN6P
AUAAAAGCGCCAGAACUACAGAAAUGUAGUUGACGAAGAGGAGGUUUAACGGAUUUUCGGCGGAUGCCUCCAAA [G37A U49A A52G] | < 1e-05 s⁻¹
AUAAAAGCGCCAGAACUACAGAAAUGUAGUUGACUGGGAGGAGGCUUAUCGAAUUUUCGGCGGAGGCCUCCAAA [G35U A36G U45C U65G] | < 1e-05 s⁻¹
AUAAAAGCGCCAGAACUACAGAAAUGUAGUUGACGACGAGGAGGUUUAUCGAAUAUUCGGCGGGUGCCUCCAAA [G37C U55A A64G] | 6.99e-05 ± 1.4e-05 s⁻¹
